The chains are these.
B1: CPEB3 Ribozyme (parent)
chain: GGGGGCCACAGCAGAAGCGUUCACGUCGCGGCCCCUGUCAGAUUCUGGUGAAUCUGCGAAUUCUGCUGU

The variants in the data set derive from B1. Kind of data set: self-cleavage, relative activity (ratio to wild type); higher = more cleavage; co-transcriptional.
With GGGGGCCACAGCAGAAGCGUUCACGUCGCGGCCCCUGUCAGAUUCUGGUGAAUCUGCGAAUGAUGCUGU [U62G C63A], the self-cleavage stood at 0.856.
Under GGGGGCCACAGCAGAAGCGUUCACGUCGCGGCCCCUGUCAGAUUCUGGUGAAUCUGCGAAUGGUGCUGU [U62G C63G] stands 0.334.
Under GGGGGCCACAGCAGAAGCGUUCACGUCGCGGCCCCUGUCAGAUUCUGGUGAAUCUGCGAAUGUUGCUGU [U62G C63U] stands 0.661.
Turning to GGGGGCCACAGCAGAAGCGUUCACGUCGCGGCCCCUGUCAGAUUCUGGUGAAUCUGCGAAUUCAGCAGU [U64A U67A], the self-cleavage stood at 0.895.
Under GGGGGCCACAGCAGAAGCGUUCACGUCGCGGCCCCUGUCAGAUUCUGGUGAAUCUGCGAAUUCAGCGGU [U64A U67G] stands 0.922.
Under GGGGGCCACAGCAGAAGCGUUCACGUCGCGGCCCCUGUCAGAUUCUGGUGAAUCUGCGAAUUAUGCUGA [C63A U69A] stands 0.949; under GGGGGCCACAGCAGAAGCGUUCACGUCGCGGCCCCUGUCAGAUUCUGGUGAAUCUGCGAAUUAUGCUGC [C63A U69C], 1.07.
The result for GGGGGCCACAGCAGAAGCGUUCACGUCGCGGCCCCUGUCAGAUUCUGGUGAAUCUGCGAAUUAUGCUGG [C63A U69G] reads 0.991; that for GGGGGCCACAGCAGAAGCGUUCACGUCGCGGCCCCUGUCAGAUUCUGGUGAAUCUGCGAAUUCAGCUUU [U64A G68U], 0.922.
Consider GGGGGCCACAGCAGAAGCGUUCACGUCGCGGCCCCUGUCAGAUUCUGGUGAAUCUGCGAAUUCAGCUCU [U64A G68C], for which the self-cleavage is 0.913.
The result for GGGGGCCACAGCAGAAGCGUUCACGUCGCGGCCCCUGUCAGAUUCUGGUGAAUCUGCGAAUCCUGCCGU [U62C U67C] reads 0.687; that for GGGGGCCACAGCAGAAGCGUUCACGUCGCGGCCCCUGUCAGAUUCUGGUGAAUCUGCGAAUCCUGCAGU [U62C U67A], 0.738; that for GGGGGCCACAGCAGAAGCGUUCACGUCGCGGCCCCUGUCAGAUUCUGGUGAAUCUGCGAAUCCUGCGGU [U62C U67G], 0.865.
Under GGGGGCCACAGCAGAAGCGUUCACGUCGCGGCCCCUGUCAGAUUCUGGUGAAUCUGCGAAUUUUGCUAU [C63U G68A] stands 0.967; under GGGGGCCACAGCAGAAGCGUUCACGUCGCGGCCCCUGUCAGAUUCUGGUGAAUCUGCGAAUUAUGCUCU [C63A G68C], 0.931.
The result for GGGGGCCACAGCAGAAGCGUUCACGUCGCGGCCCCUGUCAGAUUCUGGUGAAUCUGCGAAUUAUGCUAU [C63A G68A] reads 0.964; that for GGGGGCCACAGCAGAAGCGUUCACGUCGCGGCCCCUGUCAGAUUCUGGUGAAUCUGCGAAUUAUGCUUU [C63A G68U], 0.878.
Regarding GGGGGCCACAGCAGAAGCGUUCACGUCGCGGCCCCUGUCAGAUUCUGGUGAAUCUGCGAAUGCUGCAGU [U62G U67A], the self-cleavage stood at 0.764.
In the case of GGGGGCCACAGCAGAAGCGUUCACGUCGCGGCCCCUGUCAGAUUCUGGUGAAUCUGCGAAUUUGGCUGU [C63U U64G], the self-cleavage was 0.777.
The result for GGGGGCCACAGCAGAAGCGUUCACGUCGCGGCCCCUGUCAGAUUCUGGUGAAUCUGCGAAUUGUGCUUU [C63G G68U] reads 0.584; that for GGGGGCCACAGCAGAAGCGUUCACGUCGCGGCCCCUGUCAGAUUCUGGUGAAUCUGCGAAUUGUGCUAU [C63G G68A], 0.849.
The result for GGGGGCCACAGCAGAAGCGUUCACGUCGCGGCCCCUGUCAGAUUCUGGUGAAUCUGCGAAUUAUGCGGU [C63A U67G] reads 0.758.
As to GGGGGCCACAGCAGAAGCGUUCACGUCGCGGCCCCUGUCAGAUUCUGGUGAAUCUGCGAAUUAUGCAGU [C63A U67A], the self-cleavage stood at 0.757.
The result for GGGGGCCACAGCAGAAGCGUUCACGUCGCGGCCCCUGUCAGAUUCUGGUGAAUCUGCGAAUUAUGCCGU [C63A U67C] reads 0.651; that for GGGGGCCACAGCAGAAGCGUUCACGUCGCGGCCCCUGUCAGAUUCUGGUGAAUCUGCGAAUGCUCCUGU [U62G G65C], 0.475.
The result for GGGGGCCACAGCAGAAGCGUUCACGUCGCGGCCCCUGUCAGAUUCUGGUGAAUCUGCGAAUGCUACUGU [U62G G65A] reads 0.285.
Under GGGGGCCACAGCAGAAGCGUUCACGUCGCGGCCCCUGUCAGAUUCUGGUGAAUCUGCGAAUUAUUCUGU [C63A G65U] stands 0.789; under GGGGGCCACAGCAGAAGCGUUCACGUCGCGGCCCCUGUCAGAUUCUGGUGAAUCUGCGAAUUAUACUGU [C63A G65A], 0.509.
Consider GGGGGCCACAGCAGAAGCGUUCACGUCGCGGCCCCUGUCAGAUUCUGGUGAAUCUGCGAAUUUUGCUGG [C63U U69G], for which the self-cleavage turned out to be 1.04.
With GGGGGCCACAGCAGAAGCGUUCACGUCGCGGCCCCUGUCAGAUUCUGGUGAAUCUGCGAAUUUUGCUGA [C63U U69A], the self-cleavage was 1.02.
In the case of GGGGGCCACAGCAGAAGCGUUCACGUCGCGGCCCCUGUCAGAUUCUGGUGAAUCUGCGAAUUGUGGUGU [C63G C66G], the self-cleavage came out at 0.487.
Under GGGGGCCACAGCAGAAGCGUUCACGUCGCGGCCCCUGUCAGAUUCUGGUGAAUCUGCGAAUUGUGAUGU [C63G C66A] stands 0.248.
The result for GGGGGCCACAGCAGAAGCGUUCACGUCGCGGCCCCUGUCAGAUUCUGGUGAAUCUGCGAAUUGUGUUGU [C63G C66U] reads 0.387; that for GGGGGCCACAGCAGAAGCGUUCACGUCGCGGCCCCUGUCAGAUUCUGGUGAAUCUGCGAAUCCUGCUGG [U62C U69G], 0.984.
The result for GGGGGCCACAGCAGAAGCGUUCACGUCGCGGCCCCUGUCAGAUUCUGGUGAAUCUGCGAAUCCUGCUGC [U62C U69C] reads 1.03.
Regarding GGGGGCCACAGCAGAAGCGUUCACGUCGCGGCCCCUGUCAGAUUCUGGUGAAUCUGCGAAUCCUGCUGA [U62C U69A], the self-cleavage came to 1.01.
Take GGGGGCCACAGCAGAAGCGUUCACGUCGCGGCCCCUGUCAGAUUCUGGUGAAUCUGCGAAUCCUGAUGU [U62C C66A]: the self-cleavage was found to be 0.5.
The result for GGGGGCCACAGCAGAAGCGUUCACGUCGCGGCCCCUGUCAGAUUCUGGUGAAUCUGCGAAUUAUGCUGU [C63A] reads 0.919; that for GGGGGCCACAGCAGAAGCGUUCACGUCGCGGCCCCUGUCAGAUUCUGGUGAAUCUGCGAAUUUUGCUGU [C63U], 0.991.

Values taken from the RNAGym collection of RNA variant scans (doi:10.7554/elife.80360).
